In patent US8067371:

Tests used:
[1] = biological target: RAGE 82G/82S on human mononuclear phagocytes of heterozygous subjects (human) (UniProt Q15109); assay: cell-based or functional assay
[2] = biological target: human RAGE 82G (common allele, full-length) (human) (UniProt Q15109); assay: cell-based or functional assay
[3] = biological target: human RAGE 82S (variant allele, G82S) (human) (UniProt Q15109); assay: cell-based or functional assay
[4] = biological target: human RAGE 82G (common allele, full-length) (human) (UniProt Q15109); assay: radioligand binding of 125I-EN-RAGE on stably transfected CHO cells, equilibrium analysis by Klotz and Hunston
[5] = biological target: human RAGE 82S (variant allele, G82S) (human) (UniProt Q15109); assay: as above

B1: EN-RAGE (Extracellular Newly-Identified RAGE binding protein) (ligand, from a related filing)
chain: TKLEDHLEGIINIFHQYSVRVGHFDTLNKRELKQLITKELPKTLQNTKDQPTIDKIFQDLDADKDGAVSFEEFVVLVSRVLKTAHIDIHK
- EN-RAGE-mediated MMP-9 activity, MPs bearing RAGE 82G/82S against RAGE 82G [1]: 1.9 fold
- IL-6 in EN-RAGE-stimulated MPs, RAGE 82G/82S compared with RAGE 82G [1]: 2.9 fold
- IL-6 in culture supernatant (ELISA), human MPs bearing RAGE 82G/82S exposed to EN-RAGE [1]: 160 pg/mL
- MMP-9 activity (zymography), human MPs bearing RAGE 82G/82S, EN-RAGE against baseline [1]: 4.3 fold
- TNF-alpha in EN-RAGE-stimulated MPs, RAGE 82G/82S compared with RAGE 82G [1]: 1.8 fold
- TNF-alpha in culture supernatant (ELISA), human MPs bearing RAGE 82G/82S exposed to EN-RAGE [1]: 850 pg/mL
- phosphorylated MEK 1/2, human MPs, EN-RAGE against unstimulated cells [1]: 4.5 fold
- phosphorylated p44 and p42 MAP kinases, human MPs, EN-RAGE against unstimulated cells [1]: 4.3 fold
- IL-6 in culture supernatant (ELISA), human MPs bearing RAGE 82G exposed to EN-RAGE [2]: 55 pg/mL
- MMP-9 activity (zymography), human MPs bearing RAGE 82G, EN-RAGE against basal [2]: 2.3 fold
- NF-kB nuclear binding activity by EMSA, CHO transfectants, EN-RAGE against BSA [2]: 2.4 fold
- TNF-alpha in culture supernatant (ELISA), human MPs bearing RAGE 82G exposed to EN-RAGE [2]: 470 pg/mL
- activation of MEK 1/2, human MPs bearing RAGE 82G, EN-RAGE against unstimulated cells [2]: 2.6 fold
- activation of p44/p42 MAP kinases, human MPs bearing RAGE 82G, EN-RAGE against unstimulated cells [2]: 2.3 fold
- phosphorylated MEK 1/2 by immunoblotting, CHO transfectants, EN-RAGE 10 ug/ml against BSA [2]: 2.2 fold
- phosphorylated p44/42 MAP kinases by immunoblotting, CHO transfectants, EN-RAGE 10 ug/ml against BSA [2]: 1.9 fold
- NF-kB gel shift band intensity by EMSA, CHO transfectants, EN-RAGE against BSA [3]: 5.1 fold
- RAGE-mediated NF-kB activation, RAGE 82S compared with 82G [3]: 2.1 fold
- phosphorylated MEK 1/2 by immunoblotting, CHO transfectants, EN-RAGE 10 ug/ml against BSA [3]: 3.6 fold
- phosphorylated p44/42 MAP kinases by immunoblotting, CHO transfectants, EN-RAGE 10 ug/ml against BSA [3]: 4.1 fold
- phosphorylation of MEK 1/2, CHO cells with RAGE 82S compared with RAGE 82G [3]: 1.6 fold
- phosphorylation of p44/p42 MAP kinases, CHO cells with RAGE 82S compared with RAGE 82G [3]: 2.2 fold
- Kd [4]: 122 nM
- Kd [5]: 77 nM
